Experimental data reported in patent publication CN111171151A (FOSHAN CANTON BIOTECHNOLOGY CO LTD; UNIV JINAN, dated 2020).

Assays:
[1] = target: T1, EGFR-ECD 3 重组蛋白 (EGFR胞外段结构域3) (UniProt P00533 334-504, limits assumed); assay: ELISA, coated EGFR-ECD3 100 ng/well, NbH3 from 40 μg/mL in 1:2 dilutions
T1 construct: domain: EGFR胞外段结构域3 (EGFR-ECD 3); Secreted from transiently transfected 293F cells (pCMV-EGFR-ECD3) and purified on a nickel column; also called EGFR胞外段的CD3区域片段; EGFR-ECD 3 纯化蛋白; not shown: purified on a nickel column, detected with anti

[2] = target: T1, EGFR-ECD 3 重组蛋白 (EGFR胞外段结构域3); assay: ELISA, coated proteins 100 ng/well (EGFR-ECD3 against EGF, bFGF, Her2), anti-HA detection

B1: 抗EGFR纳米抗体 Nb H3 (VHH)
VHH: QVQLQESGGGSVQAGGSLNLSCAVSGYTGCKNGMSWYRQAPGKEREFVSGIDRDGSPSYADSVKGRFTISQDNAKNIVFLQMNSLRPEDTAMYYCATNPQRNIYGGSWCNYWGQGTQVTVSS
notes: From a Bactrian camel immunised with EGFR-ECD3; expressed in E. coli WK6 from the pComb-3X plasmid and purified on a nickel column; not shown: tags from the pComb-3X vector (purified on a nickel column, detected with anti-H)
Question: Which results are given for B1?
Answer: EC50 [1]: 8.76 µg/mL; ratio of binding (OD) against the other control proteins [2]: > 2
